Assay results: article PMC4208696

How the values were obtained:
[1] = target: Fl–hRyR1(1975–1999)p: hRyR1(1975–1999)p with a 5,6-carboxyfluorescein moiety at the N-terminus (human); assay: fluorescence polarisation
[2] = target: Fl–hRyR1(1975–1999)p: hRyR1(1975–1999)p with a 5,6-carboxyfluorescein moiety at the N-terminus (human)
[3] = target: Fl–hRyR1(3614–3643)p: hRyR1(3614–3643)p with a 5,6-carboxyfluorescein moiety at the N-terminus (human)
Fl–hRyR1(3614–3643)p: hRyR1(3614–3643)p with a 5,6-carboxyfluorescein moiety at the N-terminus (human), sequence (P21817 3614-3643): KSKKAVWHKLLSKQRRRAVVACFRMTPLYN

Fl–hRyR1(1975–1999)p: hRyR1(1975–1999)p with a 5,6-carboxyfluorescein moiety at the N-terminus (human), sequence (P21817 1975-1999): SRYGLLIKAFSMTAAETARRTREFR

## full-length mammalian calmodulin (CaM_(1–148)) (from UniProt P0DP23 1-149) (natural protein)
[1]
  saturation at ~100 μM CaM: > 85%
[2]
  stoichiometry N: 1
[3]
  stoichiometry N: 1
